We go through four substances from publication PMC11618653.

Bounds are passed on as bounds.

In assay [1] the target is cysteine desulfurase NFS1 (subunit of the (NIA)2 subcomplex) (human).
Assay [2] concerns the target iron-sulfur scaffold protein ISCU2, iron-loaded (human) (UniProt Q9H1K1).
In assay [3] the target is cysteine desulfurase NFS1 (subunit of the (NIA)2 subcomplex) (human). The source holds these as a separate data set.

UniProt Q9H1K1, sequence (Q9H1K1 35-167): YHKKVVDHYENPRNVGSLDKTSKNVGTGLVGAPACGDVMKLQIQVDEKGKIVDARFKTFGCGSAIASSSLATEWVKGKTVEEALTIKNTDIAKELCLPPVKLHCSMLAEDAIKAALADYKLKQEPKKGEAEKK

Regarding “FDX2 truncation variant lacking 5 C-terminal residues (ΔC5) (from UniProt Q6P4F2 53-181) (domain or fragment)”, in assay [1], the initial rate of [2Fe-2S] cluster synthesis (CD) at 5 µM FDX2 variant, against wild-type FDX2 is under 4 fold higher.
Same read-out and setting: for “FDX2 truncation variant lacking 10 C-terminal residues (ΔC10) (from UniProt Q6P4F2 53-176) (domain or fragment)” the value was under 4 fold higher.
The substance “FDX2-CL variant (cluster-binding loop residues 109EASL112 replaced with GGSC) (from UniProt Q6P4F2 66-183) (natural protein)” displayed an initial rates of [2Fe-2S] cluster synthesis (CD) against the concentration of the FDX2 variant, maximum at 1.5 µM, against wild-type FDX2 in assay [2] of 2 fold slower.
For the substance “FDX2-DA variant (Asp137-Asp138 exchanged to Ala) (from UniProt Q6P4F2 66-183) (natural protein)”, the initial rate of [2Fe-2S] cluster synthesis on ISCU2 (CD), dithionite-reduced ferredoxin, against dithionite-reduced wild-type FDX2 in assay [3] is 4 fold slower.
